For 1 molecule, percent of the RBR-SCR interaction (split Renilla luciferase) results are on record in paper PMC3500399.

This test has as its target SCR^AxCxA, split Renilla luciferase fusion (Arabidopsis thaliana) (UniProt Q9M384). Description: split reporter.
UniProt Q9M384, sequence (Q9M384 whole entry, the tested form may be a part): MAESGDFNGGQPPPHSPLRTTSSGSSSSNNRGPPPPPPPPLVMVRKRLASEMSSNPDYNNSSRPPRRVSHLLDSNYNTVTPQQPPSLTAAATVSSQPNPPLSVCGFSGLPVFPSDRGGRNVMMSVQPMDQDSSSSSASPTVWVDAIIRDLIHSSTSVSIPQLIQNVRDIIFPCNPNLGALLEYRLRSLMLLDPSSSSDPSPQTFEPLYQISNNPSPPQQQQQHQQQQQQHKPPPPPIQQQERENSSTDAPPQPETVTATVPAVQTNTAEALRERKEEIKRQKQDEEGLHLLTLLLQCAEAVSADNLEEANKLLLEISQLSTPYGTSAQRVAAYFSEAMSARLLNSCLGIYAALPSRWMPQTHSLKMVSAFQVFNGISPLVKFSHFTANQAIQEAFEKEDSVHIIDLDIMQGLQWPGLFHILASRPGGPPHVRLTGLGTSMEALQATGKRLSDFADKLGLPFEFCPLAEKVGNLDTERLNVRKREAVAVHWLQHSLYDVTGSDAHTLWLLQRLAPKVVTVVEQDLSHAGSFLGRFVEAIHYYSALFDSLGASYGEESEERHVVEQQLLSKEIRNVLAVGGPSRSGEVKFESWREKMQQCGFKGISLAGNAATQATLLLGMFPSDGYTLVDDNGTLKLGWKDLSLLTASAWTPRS

B1: RBR, split Renilla luciferase fusion (natural protein)
chain: MEEVQPPVTPPIEPNGKRSEASLLDICEKVLSLDGSTCDEALKLFTETKRILSASMSNIGSGTREEVERFWFAFILYSVKRLSVRKEADGLSVSGDNEFNLCQILRALKLNIVDFFKELPQFVVKAGSVLGELYGADWENRLQAKEVQANFVHLSLLSKYYKRGFREFFLTYDANAEKNSANSSTYLLDSYRFGWLLFLALRNHAFSRFKDLVTCSNGVVSILAILIIHVPCRFRNFSIQDSSRFVKKGDKGVDLVASLCKIYDASEDELRIVIDKANNLVETILKKKPSPASECQTDKLDNIDPDGLTYFEDLLEETSISTSLITLEKDYYDGKGELDERVFINEEDSLLGSGSLSAGAVNITGVKRKIDALSSPARTFISPLSPHKSPAAKTNGISGATKLAATPVSTAMTTAKWLRTVISPLLPKPSPGLEHFLKSCDRDITNDVTRRAHIILEAIFPNSSLGAQCGGGSLQAVDLMDDIWAEQRRLEACKLYYRVLEAMCKAEAQILHANNLNSLLTNERFHRCMLACSAELVLATHKTITMLFPAVLERTGITAFDLSKVIESFIRHEDSLPRELRRHLNSLEERLLESMVWEKGSSMYNSLIVARPSLALEINQLGLLAEPMPSLDAIAALINFSDGANHASSVQKHETCPGQNGGIRSPKRLCTDYRSILVERNSFTSPVKDRLLALGNVKSKMLPPPLQSAFASPTRPNPGGGGETCAETGINIFFTKINKLAAVRINGMVERLQLSQQIRESVYCFFQHVLAQRTSLLFSRHIDQIILCCFYGVAKISQMSLTFREIIYNYRKQPQCKPLVFRSVYVDALQCRRQGRIGPDHVDIITFYNEIFIPAVKPLLVELGPVRNDRAVEANNKPEGQCPGSPKVSVFPSVPDMSPKKVSAVHNVYVSPLRGSKMDALISHSTKSYYACVGESTHAYQSPSKDLSAINNRLNNSSSNRKRTLNFDAEAGMVSDSMVANSLNLQNQNQNQNGSDASSSGGAAPLKTEPTDS
Molecule B1 yielded a percent of the RBR-SCR interaction (split Renilla luciferase) of 11%.
